In the supplement of paper PMC10567573:
± gives the standard deviation.

Assay: protein stability index of a GFP-peptide fusion (GPS, HEK-293T) (PSI 1-6); higher = more stable
Details: c terminus: a fixed tail appended
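Further: 24-mer peptide tiles fused after GFP, lentivirally expressed, FACS-sorted into six equal bins by GFP/DsRed ratio, decoded by Illumina sequencing, PSI is the read-weighted mean bin number.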

Sequence	protein stability index (treatment: DMSO)	protein stability index (treatment: MLN4924 1 uM, 8 h)
DLSHIEGLSQAPQPLADEGPPGRS [SERTAD1]	5.11 ± 0.31	5.14 ± 0.36
DLVRLLQNVARIPEFELLWKDIIH [INTS3]	2.61 ± 0.65	2.15 ± 0.19
DMKLIILANRLCLPHLVALTEQYT [RHOBTB2]	3.8 ± 0.26	3.08 ± 1.3
DNAIMLFSPDFTLRNTLKSTSEDS [FAN1]	4.22 ± 0.34	4.2 ± 0.5
DPEPSGPHLPRVMLPGVLAGVSAE [SCNN1D]	4.59 ± 0.43	4.33 ± 0.21
DPFTVPTISFICRELDAISTNEEE [PRIM1]	4.85 ± 0.31	4.78 ± 0.3
DPKEDVFQQNHLFWLQNSSPSSDR [PHTF1]	4.71 ± 0.18	4.49 ± 0.19
DPQLEIAYRGNCKDVSRCVAERKY [SMOC2]	4.04 ± 0.32	4.12 ± 0.11
DSFDKFEFCEPAFVVGNCLQIASD [PCMTD1]	3.31 ± 0.072	3.24 ± 0.22
DSGDVSNVIEKVKCILKTPGKINC [RHOBTB3]	2.92 ± 0.21	2.87 ± 0.5
DSKDCILEPLSLPESPGGTTTLEG [ZNF277]	5.36 ± 0.19	5.32 ± 0.25
DTILKYLKDHFSHLLGIPHSVLQI [IQUB]	2.61 ± 0.43	2.63 ± 0.67
DTPVQNKRRRSVTPPEEQQEAEEP [CDC25B]	5.51 ± 0.35	5.71 ± 0.22
DTSGFPDLSDNRNEDPLVLLAWRC [FBXO33]	2.67 ± 0.23	3 ± 0.46
DVEGAESQLDEDEHGLHTKYIHRM [TRAF3IP2]	5.09 ± 0.23	5.13 ± 0.11
DVHHGQGTQFTFDQDPSVLYFSIH [HDAC6]	2.04 ± 0.34	2.02 ± 0.34
DVQLLHSWNNNDRSLNVFVKEDDK [SPSB1]	4.88 ± 0.14	4.97 ± 0.18
DVRMGGSFRGAFSNSEKAKNIFRI [NET1]	2.32 ± 0.44	2.44 ± 0.31

Sequence	protein stability index (treatment: DMSO)	protein stability index (treatment: MLN4924 1 uM, 8 h)
DVTCFLLPHPGLQVATSPDFDGKL [ATL3]	2.58 ± 0.27	2.69 ± 0.35
DVVEYLVDRCGASVEAGGSVHFDG [FEM1A]	2.48 ± 0.32	2.46 ± 0.6
DVVNYFRTVGFEEQASAFQEQEID [SAMD13]	3.44 ± 0.28	3.88 ± 0.44
EAEADKPRRLGRLKYQAPDIDVQL [NOP53]	4.63 ± 0.22	4.4 ± 0.2
EAERKIIEENITSAAPSNDQDGEY [SRPK2]	5.66 ± 0.17	5.69 ± 0.26
EAPQWLESDSCQKCEQPFFWNIKQ [WDFY1]	3.32 ± 0.7	3.48 ± 0.38
EDEDDDSADMDESDEDDEEERRRR [FBXO3]	5.65 ± 0.27	5.69 ± 0.12
EDYGHWLLCLRAVTHREGAPPLPG [PLEKHN1]	2 ± 0.14	2.16 ± 0.26
EEEEGTMMKAKGDLEMKEEEEISE [ZBED2]		5.53 ± 0.53
EEEVFPLAMNYLDRFLAGVPTPKS [CCND2]	3.35 ± 0.43	3.55 ± 0.25
EEFILLSQGEVEKLIKCDEIQVDS [KLHL12]	4.49 ± 0.58	4.45 ± 0.48
EEGIVSPSDLDLVMSEGLGMRYAF [CRYL1]	2.27 ± 0.42	3.02 ± 0.31
EEIPVVICAAAGRMGATMAAINSI [GLT8D2]	2.48 ± 0.52	2.22 ± 0.21
EELQSWVRGHHPKSGEEAVTVLED [ZNF232]	5.09 ± 0.38	5.07 ± 0.39
EERERIERVRRIHIKRPDDRAHLH [KCTD10]	4.43 ± 0.18	4.54 ± 0.23
EETRQKQLLADEKMKQLTEETEVL [TRIM35]	5.65 ± 0.11	5.57 ± 0.22
EEWGHQDPSKRALSRDTVQESYEN [ZNF263]	5.27 ± 0.4	5.3 ± 0.23
EGNQKGEQATSLAILRVIRLVRVF [KCNA1]	2.2 ± 0.37	2.28 ± 0.37
